Measured values from IntAct's records for PubMed 21224891.

B1: X-linked retinitis pigmentosa GTPase regulator-interacting protein 1 (Homo sapiens), Q96KN7 (parent)
chain: MSHLVDPTSGDLPVRDIDAIPLVLPASKGKNMKTQPPLSRMNREELEDSFFRLREDHMLVKELSWKQQDEIKRLRTTLLRLTAAGRDLRVAEEAAPLSETARRGQKAGWRQRLSMHQRPQMHRLQGHFHCVGPASPRRAQPRVQVGHRQLHTAGAPVPEKPKRGPRDRLSYTAPPSFKEHATNENRGEVASKPSELVSGSNSIISFSSVISMAKPIGLCMPNSAHIMASNTMQVEEPPKSPEKMWPKDENFEQRSSLECAQKAAELRASIKEKVELIRLKKLLHERNASLVMTKAQLTEVQEAYETLLQKNQGILSAAHEALLKQVNELRAELKEESKKAVSLKSQLEDVSILQMTLKEFQERVEDLEKERKLLNDNYDKLLESMLDSSDSSSQPHWSNELIAEQLQQQVSQLQDQLDAELEDKRKVLLELSREKAQNEDLKLEVTNILQKHKQEVELLQNAATISQPPDRQSEPATHPAVLQENTQIEPSEPKNQEEKKLSQVLNELQVSHAETTLELEKTRDMLILQRKINVCYQEELEAMMTKADNDNRDHKEKLERLTRLLDLKNNRIKQLEGILRSHDLPTSEQLKDVAYGTRPLSLCLETLPAHGDEDKVDISLLHQGENLFELHIHQAFLTSAALAQAGDTQPTTFCTYSFYDFETHCTPLSVGPQPLYDFTSQYVMETDSLFLHYLQEASARLDIHQAMASEHSTLAAGWICFDRVLETVEKVHGLATLIGAGGEEFGVLEYWMRLRFPIKPSLQACNKRKKAQVYLSTDVLGGRKAQEEEFRSESWEPQNELWIEITKCCGLRSRWLGTQPSPYAVYRFFTFSDHDTAIIPASNNPYFRDQARFPVLVTSDLDHYLRREALSIHVFDDEDLEPGSYLGRARVPLLPLAKNESIKGDFNLTDPAEKPNGSIQVQLDWKFPYIPPESFLKPEAQTKGKDTKDSSKISSEEEKASFPSQDQMASPEVPIEAGQYRSKRKPPHGGERKEKEHQVVSYSRRKHGKRIGVQGKNRMEYLSLNILNGNTPEQVNYTEWKFSETNSFIGDGFKNQHEEEEMTLSHSALKQKEPLHPVNDKESSEQGSEVSEAQTTDSDDVIVPPMSQKYPKADSEKMCIEIVSLAFYPEAEVMSDENIKQVYVEYKFYDLPLSETETPVSLRKPRAGEEIHFHFSKVIDLDPQEQQGRRRFLFDMLNGQDPDQGHLKFTVVSDPLDEEKKECEEVGYAYLQLWQILESGRDILEQELDIVSPEDLATPIGRLKVSLQAAAVLHAIYKEMTEDLFS
partner: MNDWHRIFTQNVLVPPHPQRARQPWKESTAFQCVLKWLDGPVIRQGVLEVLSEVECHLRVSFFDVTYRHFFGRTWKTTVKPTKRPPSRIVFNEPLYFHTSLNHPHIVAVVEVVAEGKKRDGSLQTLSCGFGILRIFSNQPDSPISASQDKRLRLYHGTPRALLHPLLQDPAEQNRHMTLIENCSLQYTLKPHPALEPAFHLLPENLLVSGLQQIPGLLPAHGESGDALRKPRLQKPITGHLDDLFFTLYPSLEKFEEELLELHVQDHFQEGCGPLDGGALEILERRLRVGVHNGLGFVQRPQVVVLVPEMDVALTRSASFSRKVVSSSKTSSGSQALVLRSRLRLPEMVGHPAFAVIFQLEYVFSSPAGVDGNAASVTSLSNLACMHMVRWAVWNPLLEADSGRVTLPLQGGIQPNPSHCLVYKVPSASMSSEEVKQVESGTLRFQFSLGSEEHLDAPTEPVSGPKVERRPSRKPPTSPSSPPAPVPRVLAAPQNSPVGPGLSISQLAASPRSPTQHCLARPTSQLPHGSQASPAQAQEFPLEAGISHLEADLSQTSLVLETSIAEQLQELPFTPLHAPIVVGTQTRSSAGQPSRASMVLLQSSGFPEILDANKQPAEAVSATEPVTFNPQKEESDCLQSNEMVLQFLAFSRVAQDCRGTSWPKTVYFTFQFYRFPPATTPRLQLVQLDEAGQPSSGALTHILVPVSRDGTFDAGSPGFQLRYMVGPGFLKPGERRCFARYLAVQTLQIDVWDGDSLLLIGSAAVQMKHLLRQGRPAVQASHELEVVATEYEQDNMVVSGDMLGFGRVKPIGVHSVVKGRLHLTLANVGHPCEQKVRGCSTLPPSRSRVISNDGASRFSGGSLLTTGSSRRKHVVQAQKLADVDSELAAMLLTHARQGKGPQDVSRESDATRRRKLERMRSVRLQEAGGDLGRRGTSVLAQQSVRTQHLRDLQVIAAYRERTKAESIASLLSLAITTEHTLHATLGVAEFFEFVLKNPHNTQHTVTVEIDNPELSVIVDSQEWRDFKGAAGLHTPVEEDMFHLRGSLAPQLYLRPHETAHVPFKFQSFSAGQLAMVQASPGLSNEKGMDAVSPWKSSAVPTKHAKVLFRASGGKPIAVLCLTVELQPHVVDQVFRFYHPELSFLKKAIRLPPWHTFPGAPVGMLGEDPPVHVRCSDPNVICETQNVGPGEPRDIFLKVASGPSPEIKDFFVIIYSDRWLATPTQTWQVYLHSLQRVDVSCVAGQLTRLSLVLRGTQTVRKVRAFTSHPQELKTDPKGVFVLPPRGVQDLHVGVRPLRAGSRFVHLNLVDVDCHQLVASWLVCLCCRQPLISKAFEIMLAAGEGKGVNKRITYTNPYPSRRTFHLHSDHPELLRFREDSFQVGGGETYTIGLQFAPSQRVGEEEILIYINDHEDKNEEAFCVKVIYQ

Variants of: B1
Settings: with nphp4_human NPHP4, O75161

Variant	effect of a mutation on the interaction
A764V	with no effect
R598Q	decreasing interaction strength
A635G	decreasing interaction strength
Q589H	with no effect

Continued, values first:

effect of a mutation on the interaction	Variant
decreasing interaction strength	T806I
decreasing interaction strength	I838V
increasing interaction strength	R812H
decreasing interaction strength	A837G

Variants of: B1
Settings: with nphp4_human NPHP4, O75161
Remark: another data set of the same source

effect of a mutation on the interaction	Variant
disrupting interaction strength	R598Q
